Data: the Human Domainome abundance scans (Beltran et al. 2025)
± gives the uncertainty stated by the source.

B1: Transcription elongation regulator 1-like protein, residues 448 to 504; numbered along this chain, Q5VWI1 (parent)
chain: LPLEERVTHFRDMLLERGVSAFSTWEKELHKIVFDPRYLLLNSEERKQIFEQFVKTR

Variants of: B1
Experiment: abundance fitness (aPCA) (normalised: wild type 0, dead -1); higher = more abundant; growth selection in yeast, the domain comes from the species named
Settings: Homo sapiens

| Variant | abundance fitness |
| --- | --- |
| E5V | -0.416 ± 0.097 |
| H9I | 0.378 ± 0.39 |
| H9M | 0.266 ± 0.075 |
| H9E | -0.234 ± 0.35 |
| T56C | -0.214 ± 0.17 |
| T56A | 0.035 ± 0.16 |
| T56D | 0.635 ± 0.27 |
| T56N | 0.05 ± 0.092 |
| T56P | 0.109 ± 0.27 |
| T56R | -0.456 ± 0.096 |
| F10W | -0.536 ± 0.27 |
| E26L | -0.564 ± 0.11 |
| R46V | -0.436 ± 0.32 |
| S20A | -0.369 ± 0.16 |
| S20F | -0.523 ± 0.14 |
| S20L | -0.594 ± 0.22 |
| S20G | -0.283 ± 0.1 |
| S20R | -1 ± 0.38 |
| E44C | -0.195 ± 0.22 |
| L14M | -0.066 ± 0.33 |
| L14P | -0.251 ± 0.42 |

| Variant | abundance fitness |
| --- | --- |
| L14G | -0.751 ± 0.18 |
| L14T | -0.528 ± 0.34 |
| L14H | -0.997 ± 0.43 |
| L14R | -0.739 ± 0.11 |
| F53R | -0.837 ± 0.18 |
| F53G | -0.368 ± 0.1 |
| F53W | -0.05 ± 0.15 |
| P36C | -0.869 ± 0.28 |
| P36T | -0.604 ± 0.17 |
| L1S | -0.082 ± 0.3 |
| L1W | -0.717 ± 0.16 |
| L1F | 0.408 ± 0.27 |
| P2C | 0.766 ± 0.23 |
| P2A | 0.331 ± 0.18 |
| T8D | -0.45 ± 0.18 |
| T8H | -0.39 ± 0.14 |
| T8N | -0.275 ± 0.17 |
| T8I | -0.386 ± 0.2 |
| T8C | -0.372 ± 0.41 |
| I49R | -0.782 ± 0.31 |
| I49Y | 0.129 ± 0.48 |

| Variant | abundance fitness |
| --- | --- |
| I49P | -0.886 ± 0.17 |
| I49L | 0.035 ± 0.17 |
| V19R | -0.916 ± 0.2 |
| V19Q | -0.625 ± 0.4 |
| V19A | -0.709 ± 0.22 |
| V19T | -0.674 ± 0.25 |
| V19I | -0.528 ± 0.15 |
| K31F | -0.587 ± 0.31 |
| K31R | -0.662 ± 0.13 |
| E28M | -1.04 ± 0.4 |
| E28S | -0.659 ± 0.2 |
| L29H | 0.264 ± 0.19 |
| L29C | -0.373 ± 0.42 |
| R6Q | -0.744 ± 0.29 |
| R6T | -0.772 ± 0.28 |
| R6E | -1.01 ± 0.44 |
| R17A | -0.465 ± 0.39 |
| R17G | -0.978 ± 0.25 |
| R17K | 0.64 ± 0.17 |
| R17H | -0.02 ± 0.13 |
| R17N | -0.218 ± 0.32 |

| Variant | abundance fitness |
| --- | --- |
| V33L | -0.47 ± 0.13 |
| V33E | -0.076 ± 0.16 |
| V33A | -0.138 ± 0.12 |
| V33W | -0.415 ± 0.21 |
| E16V | -0.666 ± 0.24 |
| E16Y | -0.882 ± 0.24 |
| E16I | -0.976 ± 0.31 |
| E16T | -0.851 ± 0.16 |
| E16S | -0.797 ± 0.17 |
| E16Q | 0.176 ± 0.12 |
| Q52W | -0.621 ± 0.14 |
| Q52T | -0.33 ± 0.088 |
| Q52A | -0.395 ± 0.1 |
| F22T | 0.048 ± 0.14 |
| F22M | -0.431 ± 0.45 |
| F22Y | -0.031 ± 0.088 |
| V54F | -0.082 ± 0.35 |
| V54R | -0.348 ± 0.084 |
| V54M | -0.505 ± 0.38 |
| V54I | -0.199 ± 0.15 |
| V54C | -0.303 ± 0.27 |
